In the DeepSol protein solubility set:

assay: soluble on expression in E. coli; label from the status in PepcDB or PDB records

Soluble on expression in E. coli, not soluble:
MGSDKIHHHHHHMGKTTRKVQITGGSTFIVSLPPEWVKRNGITKGSEISISDDGNDLVISSSNPDLPEVSKKIIIPPNYTGKPLQRLLTSSYISGFDTLSIVSKEKMGSELRDDIKRFSKVVMGIEIIEETSKSVVLQNVLNVKTFPLSKAIRRMSLNVGTMIEDTIKAIEDYDEELFQNVIERDDEVDRYQWYIYREVKNHCQYEDSNVFMLVLSRILERMADHTVNICIAMKDRKAVNGRMEMIDNLKFSLDVYNHAVESFYSKNFKVLDGIINQKSEINERKFKLLKILSYDVVLSSIAEEISRIGLYGTDIAELAMDLILSDKLEFSVQ
MGSDKIHHHHHHMGSSPARMSSGAPAPRVEVECLKAYSAPLEGRRGLLRLDFNENTIGPSPRVLEALRAIPADQIAVYPEYDGLREAVVANLSNRDQGRPGLTQPLSPSQIGLFNGVDAAIHAIFHAYGDRGDRLLTTSPTFGYYTPCAQMQGMKILAIPYEGSDFRFPLQVIRTLLQQKRPRLLLLCNPNNPTGTRLAPEQILELAVAAPETLVVVDELYEAFTGDSVLPQADFSVTPNLLVLRSLAKTAGLAGLRMGFAIGSADVIDRVSRVTGPYDINSFAVTAAFAALDDQAYVDAYVADVLKARDWISARLDASGVPYHLDGGNYLLIWPQQQPTEVEAALRKRGILVRLMTGKPLIDGSLRVSIGTIEQMQQFWQAFATVESLAA
MGSDKIHHHHHHMGTVNRAVFLDRDGVINKDHGYVHQVDDFEYIEGVFEACLALKQQGYKLVVVTNQSGIARGMYTEDQFHSLTEWMDWNFADKGVDLDGIYYCPHHNEKGIGEYKVDCDCRKPKPGMLIDAAKFLKIDLSQSVMVGDKTDDMLAAKAAGVPTRILVRTGKAIADESDASVVLDSIADVPAFLKNHKAS
MGSDKIHHHHHHMHACGDAVLFLPPNPFLDLRPVPHTSWARLPPMIRLAVLSDLHANLEATLAVHADVQRRGIQEIWVLGDLVGKGPRPREVVEWTQAHASRVIQGNWDARVAGATNRPQDLWPRSKLTPAQLAYLAGLPYGIEEQFSGAWWRFVHASSKGLFHRLYPHSSLAEQLEAYMPNPQFGLKVHADALVYADVHETLMLDVEGRPLINTGSVGNPLDSTLPSYLILEFDPHSPAHSATFVRLTYNRDAEIAAAEASGMPFTREYVAELLTGAYQKRRARTGE
MGSDKIHHHHHHMHFDAETVTHRGGLSKLRSLTKVNPRLAPNLAKTMLGGPRDHAVVEAFNAHAADKGFEFTSTWASNNIPFVTPLLRDFAAKRPAGEAIRYMEIGAYEGRNLAFMDWLLPDRLAVTVIDPWFDEALNPEEKYHAVEPRFRRNMDKCGFKSLSTHKGFSTYVLPQMLERGEQFDLIYVDGSHTALAVLIDLCFCASLLSVGGMMVLDDYWHDISEIGGPGVKQAVDQFHAAFGRYFEIAAVYRQVALVKTSEIPR
MGSDKIHHHHHHMHQGAHLDLDDGYQGDISNIGFIIGAKGVAVIDTGGSRQVGEALLSAIREITDLPVLYVINTHIHPDHIFGNAAFKQEHPVFIGHAKLPNAMALRGEAYLRQGQKLLGIQFSESEIIPPTQLVASFQELDIGGRKLLLTAYPNAHTNTDLTVLDETTGTLWTGDLLFIERAPSIDGDIKGWLSAIEDLQKLTGIQLAVPGHGPATQDLQGALSNQARYLNLLLHDVRKAIKQGHSMQQAMESAAASESGHWQLFHEVNRRNVNLIYPVLEWE
MGSDKIHHHHHHMHSDEEIFKETTPKALLQLLKKDYYFHDYCYQEIIPRGKEIKMNNSKGFQIYLVESGYFSYCLQNEYGDSGIISFVGGEIAINLIPIIKEEPEESVLRSLTEVHCWVLDPDFVERVLDESGQKAKYLLSNLLYTRKVYFKASKRNFMKKELRIRACLKELGLYMGRVTKEKEFILPDEINNSILAQYANTTREYTNIIVLKLRKEGILDDSHKPWVIKKIDIL
MGSDKIHHHHHHMHSMRLSQIQDFIAVAEGGSIRAAARTRDVSAPALTKSIRQLEDELHVPLLTRTTRGVVLSHYGEAFLRRARLIATEARRATEEMTQMLGARTGTVRIGVTGGPAHLLLPAALNRFRRQHPEVQVYIDSGRSAVHLQDLRAGLIDVAVSPIPDEGIDHDFICEPLYNNDSVVVAHQDHPLRHARTLRELVGSEWILTTCRMHGPGAAIMDAFRAQDLPLPRVAVRCDTFNLIQALLQNRRLLCMVARQLMQDRVGASTGLAVLPIEDPLPSHTVCLIYRADSPMPPVVASFAAQLRREAHYLINMPDSPLKRPGAPPEPRDDKPVETADIAV
MGSDKIHHHHHHMIDFDSLTHDQQLGILQETAEAATANYDLPADVSVDMINLSENATYKIAARDGRRWALRIHRDGYHSRTAIQSELAWLTDLRQTGIVLTPVPVAGKDGEQIQRVGHARLAQPRHVVLSQWETGSEPGIGEALGEPFELLGEVTARMHIHARQWKRPSWFSRHVWDFETSLGEERPHWGRWRDGIGVDAAKARLFGRTAELIGRRLAAFGKGHDRFGLIHCDLRLANLLIDGKTVKVIDFDDCGFGWYMYDAATPISFYEHEPQAADLIRSWTTGYRRVLDLPKADEDEIPTFVMLRRLLLVAWIGSHAETDLAKSMGLPYTEGTVGLCEAYLSKF
MGSDKIHHHHHHMIDIHCHILPEIDDGPSSLEESLVMAREAVKEGITKIIATPHHLHPSYNNKAAVVKEKVRKLNEAIQKENIPLEILPGQEVRISGDVMDGLVSGDILTLADQGKYLFVEFSSNHVSRYADKLFFQLLSQDIIPIIVHPERNHEFLKNPGLLYDLVNGGALTQITTSSLTGHLGKKIKKFTEQIIEADLTHFLASDAHNVTERTFRIREAFALVEKNYGSSKAYEFQENAELLVENQHVMGPPPQPIVKKKLLGIF
MGSDKIHHHHHHMIDPAGRTTAWEYDAYGSLLVQTLPDGSAVRTEFDLDHRPVCMTLIGGRQWGYEWNTFGNLLAQSDPSGAISRYTYDEYGQLVEHTGPRGASTRFDYHPDGNLAAQIDALGHRTQYRYDARGYLGEAIDALGQQSQYEYDRNGHLTRAIEPGGREIHCAYDADGNLSRHRDPMGHVTQMEYSALGQVSRRLAPDGTTVEYRYDTEEQLIGVVNERSELYALERDALGRIVVETDYWGQARRYRYGAAGELLCSTDPLGQTVEYRYDWLGRIVQKRVPHPEQDEALQIDSFAYDRHGDLVLAENPSCRVEFDYDAAGRMIEERQGDDFTIASDYDEAVTCPLR
MGSDKIHHHHHHMIDVAIIGGGHNGLVTAAYLAKAGLKVAVFERREIVGGASVTEELWPSIKVSTGAYVLSLLRPKIIEELKLREFGLKVYLKDPGLFLPFENGKKLYIWSSLEKTKKEIEKFSKNDAKNYKKWVKFWDLFAEMADFFMLNPPPHIDEASNLINIFRGNVNEELALSFLRTFMQDAKSLLDEYFETDEVKSALAEDSVVGTFASPSTPGTAYVLAHHVIGEVNGVKGAWGYVEGGMGEVTQALKRSAEHLGVEIYTNAEVDEVLVKNGRVEGIKLKNGKTINAKIIVSNADPKTTFFKLLRNAELEEDFLRRVRALKNVGVSFKIVGYLEELPDFGNGKSLSPEHIASELIMPNMEYIEKAYDDARALGYSREPWLSINIQSSVDPTVAPPGKFSFSIFGQYLVYDSKRNDEMKEKIAEITFEKIKEFAPNFKPIKYEVLTPLDIERRFGINGGNIFHLDMTPDQLYFFRPLIGYSDYTTPIRGLYLCGSGTHPGGGVTGAPGYNAHVKILEDLRKGIYK
MGSDKIHHHHHHMIEVEIDKDSGFCFGVVTAIESAERELGNTDTLYCLGDIVHNSLEVERLEHMGLHTIDHEGLSRLRDRKVLLRAHGEPPSTYALAKRNNITIIDATCPVVLRLQRKIHKCYQETRANNTQLVIYGKKGHAEVNGLVGQTEGTAIVIEKIEDLDRLDFTRAISLFSQTTKSLDGFKAVVAEIKQRMAEGVEFNYYDTICRQVANRLPNIKAFASSHDWVYFVAGRKSSNGKMLFEECRKANPNTLFISEVSEITEPLPEGVRRVGVCGATSTPKWLMEEVAVRIKELNASE
